pKd: −log10 of the molar value.

Test [1] deals with epidermal growth factor receptor (EGFR) (human) (UniProt P00533). The experiment in a line: cell-based or functional assay.
Test [2] addresses cation-independent mannose-6-phosphate receptor (CI-MPR), recombinant human IGF-II R (human) (UniProt P11717). Description: SPR, CI-MPR immobilized, 1:1 Langmuir global fit. (Surface plasmon resonance follows binding to a sensor surface in real time, without labels.)
Test [3] shares this target. The experiment in a line: SPR, CI-MPR immobilized, antibody as analyte, 2-fold dilutions from 500 nM.
The target is the same in test [4]. Description: SPR (Biacore T200), CI-MPR immobilized on a CM5 chip, antibody as analyte in 2-fold dilutions from 500 nM to 0.98 nM.
The target is the same in test [5]. The experiment in a line: SPR, CI-MPR immobilized.
Test [6] shares this target. Description: SPR, CI-MPR immobilized, steady-state fitting.

As to “cetuximab M6P-glycoform 9 (cetuximab carrying the M6P tetrasaccharide glycan at the Fc domain) (antibody)”, the degradation of total EGFR in HepG2 cells (Western blot, 48 h, 10 nM antibody) in test [1] was found to be 57%. Further, the pKd in test [2] was 7.15; in test [3] it was 7.14; in test [4], 7.15.

As to “cetuximab M6P-glycoform 10 (cetuximab carrying the bis-phosphorylated heptasaccharide N-glycan) (antibody)”, the fold affinity against glycoform (9) in test [5] was determined as 2 fold. The pKd in test [2] and in test [4] was 7.53 throughout.

Turning to “trastuzumab M6P-glycoform 3 (trastuzumab carrying the M6P tetrasaccharide glycan at the Fc domain) (antibody)”, the results for the pKd in test [2], in test [3] and in test [4] were 7.54, 7.52 and 7.54, respectively.

For the substance “trastuzumab M6P-glycoform 6 (trastuzumab carrying the M6P-Man3GlcNAc2 glycan) (antibody)”, in test [6], the pKd is 6.15.

Consider “trastuzumab M6P-glycoform 7 (trastuzumab carrying the bis-phosphorylated heptasaccharide moiety) (antibody)”, for which, in test [5], the fold affinity against glycoform (3) was determined as 4 fold. Besides, the pKd in test [2] and in test [4] was 8.27 throughout.

Usually pKd stands for −log10 of the Kd, conventionally taken in molar units.
